According to patent publication US20150299281A1 (ZEALAND PHARMA A S, published 2015):
Numbered stars: 1 amine (or outer) side, 2 acyl side, 3 side chain; on linkers, the order of the positions; unused ones are H or OH. Square brackets hold non-standard residues; d marks the D form. Side chains are listed from the residue outwards. * marks the point of attachment. γGlu = O=C(O)[C@H](CCC(=O)[*:2])N[*:1]; Palmitoyl = CCCCCCCCCCCCCCCC(=O)*; Aib = CC(C)(N)C(=O)O

Experiments:
human GLP-1 receptor = human GLP-1 receptor (human, UniProt P43220 24-463); test: cell-based or functional assay
human GIP receptor = biological target: T1, human GIP receptor (human, UniProt P48546 22-466); test: cell-based or functional assay
T1 sequence (looked up): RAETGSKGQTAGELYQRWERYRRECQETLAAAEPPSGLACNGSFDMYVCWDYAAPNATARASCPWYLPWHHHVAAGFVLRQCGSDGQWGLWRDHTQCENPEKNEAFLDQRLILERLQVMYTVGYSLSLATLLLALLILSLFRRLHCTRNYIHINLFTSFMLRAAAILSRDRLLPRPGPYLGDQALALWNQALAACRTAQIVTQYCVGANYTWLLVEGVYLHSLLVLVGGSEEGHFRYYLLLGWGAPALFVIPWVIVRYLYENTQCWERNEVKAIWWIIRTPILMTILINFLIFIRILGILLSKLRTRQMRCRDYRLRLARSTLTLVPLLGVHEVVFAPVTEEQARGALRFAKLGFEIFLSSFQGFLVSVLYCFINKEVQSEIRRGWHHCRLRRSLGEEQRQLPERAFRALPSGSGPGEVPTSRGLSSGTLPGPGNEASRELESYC

EC50, cAMP induction in HEK293 cells expressing human GLP-1 R (human GLP-1 receptor): 0.11 nM
EC50, cAMP induction in HEK293 cells expressing human GIP R (human GIP receptor): 0.24 nM
B1: Compound 51 (peptide)
peptide: H-Y[Aib]EGTFTSDYSKYLDSK([γGlu-Palmitoyl])AAHDFVEWLLRA-NH2
SMILES: CCCCCCCCCCCCCCCC(=O)N[C@@H](CCC(=O)NCCCC[C@H](NC(=O)[C@H](CO)NC(=O)[C@H](CC(=O)O)NC(=O)[C@H](CC(C)C)NC(=O)[C@H](Cc1ccc(O)cc1)NC(=O)[C@H](CCCCN)NC(=O)[C@H](CO)NC(=O)[C@H](Cc1ccc(O)cc1)NC(=O)[C@H](CC(=O)O)NC(=O)[C@H](CO)NC(=O)[C@@H](NC(=O)[C@H](Cc1ccccc1)NC(=O)[C@@H](NC(=O)CNC(=O)[C@H](CCC(=O)O)NC(=O)C(C)(C)NC(=O)[C@@H](N)Cc1ccc(O)cc1)[C@@H](C)O)[C@@H](C)O)C(=O)N[C@@H](C)C(=O)N[C@@H](C)C(=O)N[C@@H](Cc1c[nH]cn1)C(=O)N[C@@H](CC(=O)O)C(=O)N[C@@H](Cc1ccccc1)C(=O)N[C@H](C(=O)N[C@@H](CCC(=O)O)C(=O)N[C@@H](Cc1c[nH]c2ccccc12)C(=O)N[C@@H](CC(C)C)C(=O)N[C@@H](CC(C)C)C(=O)N[C@@H](CCCNC(=N)N)C(=O)N[C@@H](C)C(N)=O)C(C)C)C(=O)O
